The values that follow come from patent publication US20070098715A1 (published 2007).

Positions count from the first letter of the chain named.

The term koff denotes the first-order rate constant of dissociation. By Kd is commonly meant the constant that tells how readily two partners part at equilibrium. A low value points to higher affinity. As a reminder, the kon is the rate constant with which the complex forms. Higher therefore signals faster complex formation.

First the molecules themselves.
B1: Ten-M2-199 (antibody, IgG2, V domains shown)
VH: QVQLVQSGAEVKKPGASVKVSCKASGYTFTNYDINWLRQASGQGLEWMGWMNPDSGNTGYAQRFQGRVTMTRDTSISTAYMELSSLRSEDTAVYYCARYISSLHYYYYGMDVWGQGTTVTVSS
VL: DIQMTQSPSSLSASVGDRVTITCRASQSINSYLNWYQQKPGKAPRLLIYAASNLQSGVPSRFSGSGSGTDFTLTISSLQPEDFSTYYCQQSHNTPLTFGGGTKVEIK
notes: Fully human mAb from IgG2 kappa XenoMouse (B cell clone); also called Mab199
B2: Ten-M2-179 (antibody, IgG2, V domains shown)
VH: QVQLVESGGGVVQPGRSLRLSCAASGFTFSSYGMHWVRQAPGKGLEWVAFIWYDGSNKYYADSVKGRFTISRDNSKNTLYLQMNSLRAEDTAVYYCARDGSSGWYFFDYWGQGTLVTVSS
VL: DIVMTQTPLSLSVTPGQPASISCKSSQSLLHSDRQTYLFWYLQKPGQPPQLLIYEVSNRFSGVPDRFSGSGSGTDFTLKISRVEAEDVGVYYCMQSIQLPPTFGPGTKVDIK
notes: Fully human mAb from IgG2 kappa XenoMouse (B cell clone); also called Mab179
B3: Ten-M2-120 (antibody, V domains shown)
VH: QVQLVESGGGVVQPGRSLRLSCAASGFTFSSYGMHWVRQAPGKGLEWVAVLWYDGSKKFYADSVKGRFTISRDNSKNTLYLQMNSLRAEDTALYYCARGPWNYYYYGMDVWGQGTTVTVSS
VL: EIVLTQSPGTLSLSPGERATLSCRASQSVISSYLAWYQQKPGQAPRLLIYNASNRATGIPDRFSGSGSGTDFTLTISRLEPEDFAVYYCQQYGSSPITFGQGTRLEIK
notes: also called Mab120
B4: Ten-M2-140 (antibody, IgG2, V domains shown)
VH: B3 VH with V2E, Y32H, V50I, L51I, Y80S, L93V
VL: B3 VL with L21F, S32N, A52T, N54S, D61G, S66G, S77T
notes: Fully human mAb from IgG2 kappa XenoMouse (B cell clone); also called Mab140; anti-Ten-M2 monoclonal antibody clone 140
B5: Ten-M2-188 (antibody, IgG2, V domains shown)
VH: QVQLVQSGAEVKKPGASVKVSCKASGYTFTGYYMHWVRQAPGQGLEWMGWINPNSGGTNSAQRFQGRVTMTRDTSIYTAYMELSRLRSDDTAVYYCAREYRSGRYYNGMDVWGQGTTVTVSS
VL: DIQLTQSPSSLSASVGDRVTITCRASQDISNYLAWYQQKPGKVPKLLIYAASTLQSGVPSRFSGSGSGTDFTLTISSLQPEDIATYSCQKYSSTPFTFGPGTKVDIK
notes: Fully human mAb from IgG2 kappa XenoMouse (B cell clone)
B6: Ten-M2-213 (antibody, IgG2, V domains shown)
VH: QVQLVQSGAEVKKPGASVKVSCKASGYTFTNYDINWVRQATGQGLEWMGWMNPNSGNTGYAQKFQGRVTMTRNTSIRTAYMELSSLRSEDTAVYYCARGPGGSFYYYYGMDVWGQGTTVTVSS
VL: DIQMTQSPSSLSASVGDRVTITCRASQSISSYLNWYQQKPGKAPNLLIYTASSLQSGVPSRFSGSGSGTVFTLTISSLQPEDFATYYCQQSSSTPFTFGPGTKVDFK
notes: Fully human mAb from IgG2 kappa XenoMouse (B cell clone); also called Mab 213
B7: Ten-M2-8.1 (antibody, IgG2, V domains shown)
VH: QVQLQQWGAGLLKPSETLSLTCAVYGGSFSHYYWSWIRQPPGKGLEWIGEINHSGSTNYNPSLKSRVTISVDTSKNQFSLKLSSVTAADTAVYYCARDITMVRGLGGMDVWGQGTTVTVSS
VL: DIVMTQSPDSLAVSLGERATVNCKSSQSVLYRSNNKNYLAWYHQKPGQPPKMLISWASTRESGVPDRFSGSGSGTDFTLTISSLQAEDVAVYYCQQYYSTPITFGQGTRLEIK
notes: Hybridoma clone from IgG2 kappa XenoMouse; tested as hybridoma supernatant
B8: Ten-M2-7.1.1 (antibody, IgG2, V domains shown)
VH: QVQLVESGGGVVQPGRSLRLSCAASGFTFSNYGMHWVRQAPGKGLEWVAVIPFDGSNKYYADSVKGRFTISRDNSKNTLYLQTNSLRAEDTAVYYCARNWGYFDYWGQGTLVTVSS
VL: DIVMTQSPLSLPVTPGEPASISCRTSQSLLQSNGYNYLDWYLQKPGQSPQLLIYLGSSRASGVPDRFSGSGSGTDFTLKISRVEAEDVGVYYCMQALQTLTFGGGTKVEIK
notes: as for B7
B9: Ten-M2-7.2.1 (antibody, IgG2, V domains shown)
VH: QVQLQESGPGLVKPSETLSLTCTVSGGSISSYYWSWIRQPPGKGLEWIGYIYYSGNTNYNPSLKSRVTISVDTSKNQFSLKLSSVTAADTAVYYCARDIVVVPAARDYDYYYGMDVWGQGTTVTVSS
VL: EIVLTQFPGTLSLSPGESAPLSCRASQSVSSIDLVWYQQKPGQAPRLLIYGASSRATGIPDRFSVSGSGTDFTLTISRLEPEDFAVYYCQQYGSSPFTFGPGTKVDIK
notes: as for B7

One assay has as its target T1, Ten-M2 antigen (BiaCore analyte) (UniProt Q9NT68 399-2774).
Assay: not given
In turn, B1 came in with a koff not above 1e-06 s⁻¹.
On to B2, for which the off-rate constant (koff) is not above 1e-05 s⁻¹.

In the next assay the target is T1, Ten-M2 antigen (BiaCore analyte).
Assay: not given
This is another data set of the same source.
B3 registered a Kd of 18 nM.
In turn, B4 registered an equilibrium dissociation constant (Kd) of 15 nM.

A further assay addresses T2, Ten-M2 endogenously expressed on human cancer cell lines (SNB-19 and others) (human, UniProt Q9NT68 1-2774).
T2 construct: whole, on cells; also called Ten-M2 (Cur007); CG50426
Put plainly: flow cytometry on SNB-19 cells at 4° C., Alexa647 anti-human IgG secondary. On the technique in general: In flow cytometry, cells or beads pass a laser one at a time.
In the case of B5, the “Total Bound Fluorescence” value turned out to be 41.6.
As for B3, the “Total Bound Fluorescence” value worked out at 58.4.
Same read-out and setting: the result for B4 reads 75.3; that for B6, 79.7.
B1: the “Total Bound Fluorescence” value is 64.8.
As for B2, the “Total Bound Fluorescence” value came out at 89.6.

In another assay the target is T3, soluble Ten-M2 antigen (FIG. 1B), Ten-M2 amino acids 400-2733 with 6xHis-V5 tag (human, UniProt Q9NT68 399-2774).
T3 construct: also called Curagen 007-V5HIS; soluble Ten-M2 (Cur007) ECD
Put plainly: ELISA, plate coated with soluble Ten-M2 antigen, hybridoma supernatant. (In general: In an ELISA, binding on a coated surface is turned into a signal by an enzyme label.)
As for B7, the binding result is “binds”.
Regarding B8, the binding result is reported as “binds”.
In the case of B9, the binding result is listed as “binds”.

The next assay has as its target T1, Ten-M2 antigen (BiaCore analyte).
Assay: not given
This is another data set of the same source.
B1 registered a Kd not above 0.043 nM.
Still for that read-out and setting: the result for B2 reads not above 0.61 nM.

A further assay deals with T2, Ten-M2 endogenously expressed on human …. Put plainly: cell-based or functional assay.
B5: the “% Internalization (SNB-19 cells)” value is 48% and the “Internalized Fluorescence (SNB-19 cells, 37° C. 30 min, glutathione-resistant)” value (from here on “Internalized Fluorescence”) was 22.1.
With B3, the “% Internalization (SNB-19 cells)” value is 40% and the “Internalized Fluorescence” value was determined as 26.4.
Take B4: the “% Internalization (SNB-19 cells)” value was found to be 44% and the “Internalized Fluorescence” value is 36.5.
For B6, in that order: 46% and 40.2.
Consider B1, for which the “% Internalization (SNB-19 cells)” value was 46% and the “Internalized Fluorescence” value amounted to 32.9.
Take B2: the “% Internalization (SNB-19 cells)” value worked out at 29% and the “Internalized Fluorescence” value was determined as 13.6.

For the next assay, the target named is T1, Ten-M2 antigen (BiaCore analyte).
Assay: not given
This is another data set of the same source.
B3 gave a koff of 0.000465 s⁻¹ and a kon of 26200 M⁻¹ s⁻¹.
B4 came in with a koff of 0.000605 s⁻¹ and an on-rate (kon) of 40100 M⁻¹ s⁻¹.
B6 registered a dissociation constant Kd of 1.1 nM, a koff of 3.22e-05 s⁻¹ and an on-rate (kon) of 29000 M⁻¹ s⁻¹.
On to B1, for which the kon was 23300 M⁻¹ s⁻¹.
As to B2, the kon stood at 16300 M⁻¹ s⁻¹.
